B1: His-FlgN (natural protein)
chain: MTRLSEILDQMTTVLNDLKTVMDAEQQQLSVGQINGSQLQRITEEKSSLLATLDYLEQQRRLEQNAQRSANDDIAERWQAITEKTQHLRDLNQHNGWLLEGQIERNQQALEVLKPHQEPTLYGADGQTSVSHRGGKKISI
notes: FlgN of Salmonella enterica serovar Typhimurium; source: E. coli BL21 (DE3) Star, in lysate or purified (Ni-NTA)
B2: GST-FliJ(Δ13–24) (natural protein)
chain: MAQHGALETLKDLGEMRRGCQQAEEQLKMLIDYQNEYRSNLNTDMGNGIASNRWINYQQFIQTLEKAIEQHRLQLTQWTQKVDLALKSWREKKQRLQAWQTLQDRQTAAALLAENRMDQKKMDEFAQRAAMRKPE
notes: FliJ of Salmonella enterica serovar Typhimurium with residues 13-24 deleted; also called GST-J(Δ13–24)

Legend:
GST-FliJ = target: T1, GST-FliJ (Salmonella enterica serovar Typhimurium, UniProt P0A1K1 1-147); assay: SPR; GST-FliJ or GST-FliJ(Δ13–24) captured through immobilised anti-GST antibody on a CM5 chip; His-FlgN flowed over at 20 µl/min; 10 mM HEPES pH 7.4, 0.15 M NaCl, 3 mM EDTA, 0.005% Surfactant P20; 25 °C; steady-state analysis, 1 to 1 binding model; conditions: both partners purified
T1 construct: FliJ, flagellar export protein of Salmonella enterica serovar Typhimurium; also called GST-J; source: Salmonella MMHI0117, over-produced, in lysate

His-FlgN = target: B1; assay: as above; conditions: both partners purified

Binder	Kd (GST-FliJ)	Kd (His-FlgN)
B1	27.4 ± 13 µM	
B2		7.74 ± 0.12 µM

Reference: paper PMC7955116, “The FlgN chaperone activates the Na^+-driven engine of the Salmonella flagellar protein export apparatus” (Communications Biology, 2021)
